Source: patent publication US20220041746A1 (Sanofi, published 2022)
Several values for one entry are separate records, joined by “and”; a condition that tells them apart may be missing. Equal entries are not always repeated. Where two headings read alike, the source gives them in different places.

What was measured:
[1] = biological target: human CD28 (Cambridge Biologics LLC Cat 03-01-0303) (human, UniProt P10747 19-152); assay: ELISA on coated hCD28 IgG4
Method: The binding properties of the purified antibodies were analyzed either using ELISA or SPR methods. For ELISA, corresponding antigens for each binding site in the trispecific binding protein were used to coat a 96-well Immuno Plate (Nunc 439454, Thermo Fisher Scientific) overnight at 4° C. using 2 μg/ml each antigen m PBS(pH7.4). The coated plate was blocked using 5% skim milk 12% BSA in PBS for one hour at RT, followed by washing with PBS+[…] three times (Aqua Max 400, Molecular Devices). Serial dilution of antibodies (trispecific and control Abs) were prepared and added onto the ELISA plates (100 μl/well in duplicate), incubated at RT for one hour, followed by washing 5 times with PBS+0.25% Tween 20.
The reaction was terminated by adding 50 μl 1M H₂SO₄, and OD₄₅₀ was measured using SpectraMax M5 (Molecular Devices) and analyzed using SoltMax Pro6.3 software (Molecular Devices). The final data was transferred to GraphPad Prism software (GraphPad Software, CA. USA), and plotted as shown. EC50 was calculated using the same software.

hCD38-his (SEQ ID NO: 2) [2] = biological target: T1, hCD38-his (SEQ ID NO: 2) (human, UniProt P28907 45-300); assay: ELISA on hCD38::Histag
T1 construct: His-tagged soluble protein derived from isoform A; also called human CD38-histag; hCD38::Histag

[3] = biological target: T2, cynomolgus monkey CD38 expressed on the cell surface (cynomolgus monkey, UniProt Q5VAN0 1-301); assay: flow cytometry (FACS) on 300.19 PreB cynoCD38 cells [Cont.]
T2 construct: whole, on cells; also called cCD38-expressing cells
Method: (§1) The recombinant cell line was described by J. Deckket et al. 2014 Clin Cancer Res 20:4574-4583. […] Antibody binding was evaluated after centrifugation and resuspension of cells by adding 200 μL/well PBS 1% BSA and read using Guava® easvCyte™ 8HT Flow Cytometry System. Apparent KD and EC50 values were estimated using BIOST@T-BINDING and BIOST@T-SPEED software, respectively.

[4] = biological target: T3, human CD38 expressed on the cell surface (human, UniProt P28907 1-300); assay: flow cytometry on preB::300.19 cells, apparent KD
T3 construct: whole, on cells; also called hCD38-expressing cells; huCD38
Method: as §1

[5] = biological target: T2, cynomolgus monkey CD38 expressed on the …; assay: flow cytometry on preB::300.19 cells, apparent KD
Method: as §1

[6] = biological target: T3, human CD38 expressed on the cell surface; assay: flow cytometry (FACS) on 300.19 PreB hCD38 cells
Method: as §1

cCD38-his (SEQ ID NO: 4) [7] = biological target: T4, cCD38-his (SEQ ID NO: 4) (cynomolgus monkey, UniProt Q5VAN0 46-301); assay: ELISA (column ELISA EC50 nM, cyno)
T4 construct: His-tagged soluble protein; also called cyno CD38-histag; cynoCD38::Histag

cCD38-his (SEQ ID NO: 4) [8] = biological target: T4, cCD38-his (SEQ ID NO: 4); assay: SPR, mAb captured via anti-human Fc, soluble CD38-his injected
Method: (§2) The binding properties of the anti-huCD38 mabs were evaluated using a BIAcore 2000 (BIAcore Inc., Uppsala, Ni). […] The surface was regenerated between injections using 30 μL of 50 mM NaOH-1 M NaCl. Individual sensorgrams wore analyzed using BIAsimulation software.

hCD38-his (SEQ ID NO: 2) [9] = biological target: T1, hCD38-his (SEQ ID NO: 2); assay: as above
Method: as §2

cCD38-his (SEQ ID NO: 4) [10] = biological target: T4, cCD38-his (SEQ ID NO: 4); assay: ELISA on cynoCD38::Histag [Cont.]
[11] = biological target: T3, human CD38 expressed on the cell surface; assay: flow cytometry (column FACS EC50 nM, hu)
Method: as §1

[12] = biological target: T2, cynomolgus monkey CD38 expressed on the …; assay: flow cytometry (column FACS EC50 nM, cyno)
Method: as §1

hCD38-his (SEQ ID NO: 2) [13] = biological target: T1, hCD38-his (SEQ ID NO: 2); assay: ELISA (column ELISA EC50 nM, hu)
[14] = biological target: T2, cynomolgus monkey CD38 expressed on the …; assay: flow cytometry on PréB cCD38 cells
Method: as §1, with “Clin.” for “Clin”, “μl/well” for “μL/well”, “easyCyte™” for “easvCyte™”, “BIOST®T-BINDING” for “BIOST@T-BINDING”, “BIOST®T-SPEED” for “BIOST@T-SPEED”

cCD38-his (SEQ ID NO: 4) [15] = biological target: T4, cCD38-his (SEQ ID NO: 4); assay: ELISA on cynoCD38::Histag [Cont.]; remark: listed apart in the source
[16] = biological target: T3, human CD38 expressed on the cell surface; assay: flow cytometry on PréB hCD38 cells
Method: as §1, with “Clin.” for “Clin”, “μl/well” for “μL/well”, “easyCyte™” for “easvCyte™”, “BIOST®T-BINDING” for “BIOST@T-BINDING”, “BIOST®T-SPEED” for “BIOST@T-SPEED”

[17] = biological target: T5, CD38 isoform A (SEQ ID NO:1) (human, UniProt P28907 45-300); assay: ELISA, plate coated with the CD38 isoform
T5 construct: also called huCD38 isoform A
Method: (§3) 96-well plates were coated with either isoform at 0.5 μg/well in PBS and 100 μL/well of antibodies were added to the plate. The plate was incubated at 37° C. for 1 h and washed five times with PBS containing 0.05% Tween-20 (PBS-T). […] Following incubation at 37° C. for 1 h in darkness, plates were washed with PBS-T five times. Antibody binding w as visualized by adding TMB-H2O2 buffer and read at a wavelength of 450 nm. EC50 values were estimated using BIOST@T-SPEED software.

[18] = biological target: T6, CD38 isoform E (SEQ ID NO:105) (human, UniProt P28907 45-195, limits assumed); assay: ELISA, plate coated with the CD38 isoform
T6 construct: also called huCD38 isoform E
Method: as §3

hCD38-his (SEQ ID NO: 2) [19] = biological target: T1, hCD38-his (SEQ ID NO: 2); assay: ELISA on hCD38::Histag; remark: listed apart in the source
[20] = biological target: T3, human CD38 expressed on the cell surface; assay: flow cytometry on preB::300.19 cells, apparent KD; remark: listed apart in the source
Method: as §1, with “Clin.” for “Clin”, “μl/well” for “μL/well”, “easyCyte™” for “easvCyte™”, “BIOST®T-BINDING” for “BIOST@T-BINDING”, “BIOST®T-SPEED” for “BIOST@T-SPEED”

[21] = biological target: T2, cynomolgus monkey CD38 expressed on the …; assay: flow cytometry on preB::300.19 cells, apparent KD; remark: listed apart in the source
Method: as §1, with “Clin.” for “Clin”, “μl/well” for “μL/well”, “easyCyte™” for “easvCyte™”, “BIOST®T-BINDING” for “BIOST@T-BINDING”, “BIOST®T-SPEED” for “BIOST@T-SPEED”

cCD38-his (SEQ ID NO: 4) [22] = biological target: T4, cCD38-his (SEQ ID NO: 4); assay: ELISA on cynoCD38::Histag [Cont.]; remark: listed apart in the source
hCD38-his (SEQ ID NO: 2) [23] = biological target: T1, hCD38-his (SEQ ID NO: 2); assay: ELISA on hCD38::Histag; remark: listed apart in the source

Row | EC50 [3] | Kd [4] [nM] | Kd [5] [nM] | EC50 [6] | EC50 (cCD38-his (SEQ ID NO: 4) [7]) [nM] | Kd (cCD38-his (SEQ ID NO: 4) [8]) [nM] | koff (cCD38-his (SEQ ID NO: 4) [8]) [s⁻¹] | Kd (hCD38-his (SEQ ID NO: 2) [9]) [nM] | koff (hCD38-his (SEQ ID NO: 2) [9]) [s⁻¹] | EC50 [11] [nM] | EC50 [12] [nM] | EC50 (hCD38-his (SEQ ID NO: 2) [13]) [nM] | Binder | also measured
1 |  |  |  |  |  |  |  |  |  |  |  |  | Control CD38xCD3 antibody (bispecific antibody, also called benchmark control CD38×CD3 bispecific antibody) benchmark heavy chain 1 (binds CD38): EVQLVESGGGLVQPGGSLRLSCAASGFTFSYSWMNWVRQAPGKGLEWVSEINPQSSTINYATSVKGRFTISRDNSKNTLYLQMNSLRAEDTAVYYCARYGNWFPYWGQGTLVTVSSASTKGPSVFPLAPSSKSTSGGTAALGCLVKDYFPEPVTVSWNSGALTSGVHTFPAVLQSSGLYSLSSVVTVPSSSLGTQTYICNVNHKPSDTKVDKKVEPKSCDKTHTCPPCPAPPVAGPSVFLFPPKPKDTLMISRTPEVTCVVVDVKHEDPEVKFNWYVDGVEVHNAKTKPREEEYNSTYRVVSVLTVLHQDWLNGKEYKCKVSNKALPAPIEKTISKAKGQPREPQVYTLPPSREEMTKNQVSLTCDVSGFYPSDIAVEWESDGQPENNYKTTPPVLDSDGSFFLYSKLTVDKSRWEQGDVFSCSVMHEALHNHYTQKSLSLSPGK benchmark heavy chain 2 (binds CD3): not shown benchmark light chain (binds CD38): DIVMTQSPSSLSASVGDRVTITCRASQNVDTWVAWYQQKPGQSPKALIYSASYRYSGVPDRFTGSGSGTDFTLTISSLQPEDFATYFCQQYDSYPLTFGGGTKLEIKRTVAAPSVFIFPPSDEQLKSGTASVVCLLNNFYPREAKVQWKVDNALQSGNSQESVTEQDSKDSTYSLSSTLTLSKADYEKHKVYACEVTHQGLSSPVTKSFNRGEC | binding result [1]: no binding (tested: 10^4 pM)
2 | 1.31 nM | 0.78 | 1.31 | 0.78 nM and 0.117 µg/mL | 0.15 | 0.71 | 0.000129 | 0.483 | 0.000283 | 0.78 | 1.31 | 0.16 | mAb3 (antibody, human IgG1, kappa, V domains shown, also called antiCD38_C2-CD38-1_VH3-VL3) VH: QVQLVQSGAEVVKPGASVKVSCKASGYTFTSFNMHWVKEAPGQRLEWIGYIYPGNGGTNYNQKFQGRATLTADTSASTAYMELSSLRSEDTAVYFCARTGGLRRAYFTYWGQGTLVTVSS VL: DIVLTQSPATLSLSPGERATISCRASESVDSYGNGFMHWYQQKPGQPPRLLIYLASSRATGIPARFSGSGSGTDFTLTISPLEPEDFAVYYCQQNKEDPWTFGGGTKLEIKR | EC50 (hCD38-his (SEQ ID NO: 2) [2]): 0.16 nM; EC50 (cCD38-his (SEQ ID NO: 4) [10]): 0.15 nM
3 | 0.76 nM and 0.114 µg/mL | 0.33 | 0.75 | 0.33 nM | 0.1 | 3.44 | 0.000784 | 0.332 | 0.00039 | 0.33 | 0.76 | 0.11 | mAb2 (antibody, human IgG1, kappa, V domains shown, also called antiCD38_C2-CD38-1_VH1-VL1; CD38VH1) VH: QVQLVQSGAEVVKPGASVKVSCKASGYTFTSYAMHWVKEAPGQRLEWIGYIYPGQGGTNYNQKFQGRATLTADTSASTAYMELSSLRSEDTAVYFCARTGGLRRAYFTYWGQGTLVTVSS VL: DIVLTQSPATLSLSPGERATISCRASQSVSSYGQGFMHWYQQKPGQPPRLLIYGASSRATGIPARFSGSGSGTDFTLTISPLEPEDFAVYYCQQNKEDPWTFGGGTKLEIKR | EC50 [14]: 1 nM and 0.147 µg/mL; EC50 (cCD38-his (SEQ ID NO: 4) [15]): 0.1 nM; EC50 [16]: 0.5 nM and 0.0694 µg/mL; EC50 [17]: 0.14 nM; EC50 [18]: 0.1 nM; EC50 (hCD38-his (SEQ ID NO: 2) [19]): 0.11 nM; Kd [20]: 0.5 nM; Kd [21]: 1 nM
4 | 1.06 nM and 0.16 µg/mL | 0.68 | 1.07 | 0.68 nM and 0.102 µg/mL | 0.14 | 0.563 | 0.000125 | 0.312 | 0.000333 | 0.68 | 1.06 | 0.14 | mAb5 (antibody, human IgG1, kappa, V domains shown, also called antiCD38_C2-CD38-1_VH6-VL3) VH: QVQLVQSGAEVVKPGASVKMSCKASGYTFTSFNMHWVKEAPGQRLEWIGYIYPGNGGTNYNQKFQGRATLTADTSASTAYMEISSLRSEDTAVYFCARTGGLRRAYFTYWGQGTLVTVSS VL: DIVLTQSPATLSLSPGERATISCRASESVDSYGNGFMHWYQQKPGQPPRLLIYLASSRATGIPARFSGSGSGTDFTLTISPLEPEDFAVYYCQQNKEDPWTFGGGTKLEIKR | EC50 (cCD38-his (SEQ ID NO: 4) [22]): 0.14 nM; EC50 (hCD38-his (SEQ ID NO: 2) [23]): 0.14 nM
